First the molecules themselves.
B1: Ar5Y_4 mutant Y13A (peptide)
peptide: GNWDYNSQRAQLANQ
notes: numbers count on the peptide itself; source: synthetic peptide (Fmoc solid-phase synthesis)
B2: Ar5Y_4 mutant R9A (peptide)
peptide: GNWDYNSQAAQLYNQ
notes: as for B1
B3: Ar5Y_4 mutant Y5A (peptide)
peptide: GNWDANSQRAQLYNQ
notes: as for B1
B4: Ar5Y_4 mutant W3A (peptide)
peptide: GNADYNSQRAQLYNQ
notes: as for B1
B5: Ar5Y_4 mutant D4A (peptide)
peptide: GNWAYNSQRAQLYNQ
notes: as for B1
B6: Ar4_2 (peptide)
peptide: LDYDGRLSQ
notes: peptide designed with anchor residues R113, A121, D122 and Y123 of hPD-L1; source: synthetic peptide (Fmoc solid-phase synthesis)
B7: Ar5M_1 (peptide)
peptide: LDYGDKREGQMAE
notes: peptide designed with anchor residues R113, M115, A121, D122 and Y123 of hPD-L1; source: synthetic peptide (Fmoc solid-phase synthesis)
B8: Ar5M_2 (peptide)
peptide: LDYVNRRKMYQ
notes: as for B7
B9: Ar4_1 (peptide)
peptide: GIDYEERWK
notes: as for B6
B10: Ar5Y_2 (peptide)
peptide: FNWDYSLEELREKAKYK
notes: de novo designed peptide with anchor residues Y56, R113, A121, D122 and Y123 of hPD-L1; source: synthetic peptide (Fmoc solid-phase synthesis)
B11: Ar5Y_3 (peptide)
peptide: TEKDYRHGNIRMKLAYDL
notes: as for B10
B12: Ar5Y_1 (peptide)
peptide: FNWDYSWKSERLKEAYDL
notes: as for B10
B13: Ar5Y_4 (peptide)
peptide: GNWDYNSQRAQLYNQ
notes: as for B10

Where a SMILES comes first, the peptide text is derived from it. Where no end group is shown, it is not given here.

As a reminder, the Kd is the constant that tells how readily two partners part at equilibrium. High values mean weaker binding, low ones tighter binding.

In the first test the target is T1, hPD-1 (Homo sapiens, UniProt Q15116).
T1 construct: extracellular region of hPD-1 (amino acids 34–150); made in house; host or cells: E. coli BL21 (DE3)
T1 sequence (Q15116 34-150): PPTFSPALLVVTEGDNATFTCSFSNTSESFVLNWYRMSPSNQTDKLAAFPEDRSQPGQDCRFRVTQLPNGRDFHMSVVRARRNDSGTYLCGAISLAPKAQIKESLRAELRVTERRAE
Briefly: SPR direct binding assay, hPD-1 immobilized on CM5 sensor chip. The following applies: steady-state model, PBS-P buffer pH 7.4, 25°C, mean ± SD from three independent experiments. As to the method:
The purified active hPD-1 was diluted in 10 mM sodium acetate buffer (pH 4.5) to the final concentration of 50 μg/ml. The diluted hPD-1 was immobilized on a CM5 sensor chip by amino coupling reagent kit, and the immobilization level was 5000 response unit (RU). Binding experiments were performed in PBS-P buffer (8 mM Na2HPO4, 2 mM KH2PO4, 137 mM NaCl, 2.7 mM KCl, 0.005% surfactant P20, pH 7.4) at 25°C with a flow rate of 30 μl/min. […] RU values were collected and all the experimental data was globally analyzed by a steady-state model within Biacore T200 Evaluation software, version 2.0.
The molecule `N[C@@H](Cc1c[nH]c2ccccc12)C(=O)N[C@@H](CC(=O)O)C(=O)N[C@@H](Cc1ccc(O)cc1)C(=O)N[C@@H](CC(=O)O)C(=O)O` [Ar3_1, WDYD] (H-WDYD-OH) showed a Kd of 22.4 ± 0.34 µM.
As for GNWDANSQRAQLYNQ [Peptide Y5A], binding was characterised by a dissociation constant (Kd) of 20.1 ± 0.98 µM.

In the next test the target is T2, human programmed death 1 (hPD-1), extracellular region (amino acids 34-150) (human, UniProt Q15116 34-150).
T2 construct: extracellular region of human PD-1, amino acids 34-150, cloned into pET28a between NcoI and NdeI sites; purification was by cation exchange and gel filtration; also called CD279
T2 sequence (Q15116 34-150): as above
The test is described as follows: SPR; Biacore T200; hPD-1 immobilised on a CM5 chip by amine coupling (5000 RU); peptides or hPD-L1 injected 90 s, dissociation 120 s; PBS-P buffer pH 7.4, 25°C, 30 μl/min; steady-state model. The following applies: both partners purified.
B1: the Kd worked out at 10.2 µM.
For B2, the Kd was determined as 21.2 µM.
The molecule B3 returned a Kd of 20.2 µM.
Still for that read-out and setting: the same measure for B4: 8.08 µM.
In turn, B5 returned a Kd of 18.9 µM.

In the next test the target is T2, human programmed death 1 (hPD-1), …. The description is as above. The following applies: both partners purified. The source holds these as a separate data set.
B6 showed a Kd of 83.9 µM.
As to B7, the Kd is 21.6 µM.
Consider B8, for which the Kd stood at 3.32 µM.
B9 yielded a Kd of 28.3 µM.

A further test shares this target. Described as above. The following applies: both partners purified. This is another data set of the same source.
In the case of B10, the affinity, expressed as Kd, was 3.14 µM.
The same measure, in the same setting: the same measure for B11: 3.13 µM.
On the same count and under the same terms, the same measure for B12: 3.39 µM; for B13: 1.38 µM.
